# Paper PMC4191604 (Journal of Medicinal Chemistry, 2014)
# Where a chain is given by its changes, count along the chain named.
# T1: GBP1 mutant D184A (human, UniProt P32455 1-592, D184A)
# T1 sequence (looked up): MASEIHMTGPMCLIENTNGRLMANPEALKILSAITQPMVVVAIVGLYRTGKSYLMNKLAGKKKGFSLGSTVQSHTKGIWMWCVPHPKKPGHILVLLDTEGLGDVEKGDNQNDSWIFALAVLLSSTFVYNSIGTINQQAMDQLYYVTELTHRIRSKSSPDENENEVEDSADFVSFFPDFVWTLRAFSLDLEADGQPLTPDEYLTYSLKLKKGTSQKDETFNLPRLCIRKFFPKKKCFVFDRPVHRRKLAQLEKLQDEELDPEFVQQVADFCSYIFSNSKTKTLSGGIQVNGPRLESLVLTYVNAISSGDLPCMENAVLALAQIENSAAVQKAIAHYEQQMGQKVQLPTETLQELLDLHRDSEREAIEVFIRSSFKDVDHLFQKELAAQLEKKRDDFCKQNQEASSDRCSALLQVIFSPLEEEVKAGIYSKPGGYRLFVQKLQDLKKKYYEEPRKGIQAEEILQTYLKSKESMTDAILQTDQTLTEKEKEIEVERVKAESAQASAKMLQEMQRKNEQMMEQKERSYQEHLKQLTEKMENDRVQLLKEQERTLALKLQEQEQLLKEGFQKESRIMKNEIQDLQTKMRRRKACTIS
# T2: GBP1 mutant R48A (human, UniProt P32455 1-592, R48A)
# T2 sequence (looked up): T1 sequence (looked up) with R48A, A184D
# T3: GBP1 mutant Q72A (human, UniProt P32455 1-592, Q72A)
# T3 sequence (looked up): T1 sequence (looked up) with Q72A, A184D
# T4: GBP1 mutant R227E/K228E (human, UniProt P32455 1-592, R227E | K228E)
# T4 sequence (looked up): T1 sequence (looked up) with A184D, R227E, K228E
# B1: PIM1 (recombinant) (enzyme)
# chain: not shown
# Key:
# Assay in all cases: SPR
# [1] = biological target: T1, GBP1 mutant D184A
# [2] = biological target: T2, GBP1 mutant R48A
# [3] = biological target: T3, GBP1 mutant Q72A
# [4] = biological target: T4, GBP1 mutant R227E/K228E
binder,measurement,setting,value
B1,Kd,[1],80 ± 5 nM
same,Kd,[2],290 ± 21 nM
same,Kd,[3],62 ± 2 nM
same,Kd,[4],> 10000 nM
